Data on 2 molecules can be found in article PMC3084716, “Different Conformations of Phosphatase and Tensin Homolog, Deleted on Chromosome 10 (PTEN) Protein within the Nucleus and Cytoplasm of Neurons”.

Where no end group is shown, it is not given here.

The target of series [1] is T1, PTEN peptide 33-47 amide (human and mouse (same sequence), UniProt P60484).
T1 chain: IAMGFPAERLEGVYR-NH2
Briefly: filter binding; Filter binding: 50 mM Tris (pH not given), 1 h, 40 µl, protein 0.5 mg/ml (Fig. 2E: GST-PTEN 25 µM), PBS washes; co-precipitation 1 h at room temperature, 1 µM aptamer; pull-down from homogenate with 250 nM aptamer, salmon sperm DNA, RIPA (1:2)/PBS washes; blots in PBS-BSA 2%. The settings on record: tags: C-terminal amide; label: 5'-biotin or 32P (assay dependent); hairpin; 13 bp stem from the constant regions.

Series [2] concerns the target T2, GST-PTEN (amino-terminal phosphatase domain) (Homo sapiens, UniProt P60484 1-200). The series can be described thus: filter binding, Scatchard; called affinity constant; Filter binding: 50 mM Tris (pH not given), 1 h, 40 µl, protein 0.5 mg/ml (Fig. 2E: GST-PTEN 25 µM), PBS washes; co-precipitation 1 h at room temperature, 1 µM aptamer; pull-down from homogenate with 250 nM aptamer, salmon sperm DNA, RIPA (1:2)/PBS washes; blots in PBS-BSA 2%. As to conditions: protein: recombinant; tags: GST (N-terminal, pGEX2T); label: 5'-biotin or 32P (assay dependent); hairpin; 13 bp stem from the constant regions.

Series [3] concerns the target T1, PTEN peptide 33-47 amide. Briefly: co-precipitation on antibody-Sepharose, real-time PCR; peptide bound to anti-PTEN antiserum; 1.8e11 molecules bound; Filter binding: 50 mM Tris (pH not given), 1 h, 40 µl, protein 0.5 mg/ml (Fig. 2E: GST-PTEN 25 µM), PBS washes; co-precipitation 1 h at room temperature, 1 µM aptamer; pull-down from homogenate with 250 nM aptamer, salmon sperm DNA, RIPA (1:2)/PBS washes; blots in PBS-BSA 2%. The settings on record: tags: C-terminal amide; label: 5'-biotin or 32P (assay dependent); hairpin; 13 bp stem from the constant regions. For orientation: Quantitative PCR measures a nucleic acid by following its amplification.

Series [4] deals with T2, GST-PTEN (amino-terminal phosphatase …). The series can be described thus: filter binding, Scatchard; data not shown; Filter binding: 50 mM Tris (pH not given), 1 h, 40 µl, protein 0.5 mg/ml (Fig. 2E: GST-PTEN 25 µM), PBS washes; co-precipitation 1 h at room temperature, 1 µM aptamer; pull-down from homogenate with 250 nM aptamer, salmon sperm DNA, RIPA (1:2)/PBS washes; blots in PBS-BSA 2%. As to conditions: protein: recombinant; tags: GST (N-terminal, pGEX2T); label: 5'-biotin or 32P (assay dependent); hairpin; 13 bp stem from the constant regions.

T2 sequence (P60484 1-200): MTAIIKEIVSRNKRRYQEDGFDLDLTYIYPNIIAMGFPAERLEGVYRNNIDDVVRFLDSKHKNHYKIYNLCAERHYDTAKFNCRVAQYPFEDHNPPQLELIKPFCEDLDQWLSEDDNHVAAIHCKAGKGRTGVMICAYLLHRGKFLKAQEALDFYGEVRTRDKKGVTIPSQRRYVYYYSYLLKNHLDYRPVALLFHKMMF

B1: PTENz7 (structured_DNA)
DNA: CGGAATTCCGAGCGTGGGCGTGGTCATACCGCGCCTATCGAACTCGCCACTCGCGTGCAGCTCTGTGTAGGTACGCCCACGCTCGAG
In the case of B1, the binding result with PTEN peptide 33-47 amide [1] is “binds”. In addition, the Kd (in general, the free concentration of one partner at which half of the binding sites on the other are occupied at equilibrium, for simple one-to-one binding) in series [2] amounted to 75 nM.

B2: PTENz14 (structured_DNA)
DNA: CGGAATTCCGAGCGTGGGCGTGAGCCCTAAACACAAGTCCGCAGGGGTGTGGTAATATTCGCAGTTGTGTGTACGCCCACGCTCGAG
Regarding B2, in the series with PTEN peptide 33-47 amide [3], the binding signal is approximately 20 fold over background. The dissociation constant Kd in series [4] came to 54 nM.
